{"source": "the DeepSol protein solubility set", "data": [{"test": "soluble on expression in E. coli; label from the status in PepcDB or PDB records", "values": [{"sequence": "VLTDIQIAQSCKMKPITQVAAELGIDEEELELYGKYKAKLSDKLWERVKDRPDGKLVLVTAINPTPAGEGKTTTTVGLGQAMARIGKKAVIALREPSLGPVMGIKGGAAGGGYSQVVPMEDINLHFTGDMHAITAANNLLSAAIDNHIQQGNELNIDVRQIIWKRAMDMNDRALRNIVVGLGGKANGVPREDGFQITVASEVMAVLCLSTGLMDLKERLGRILIGYTYDGKPVFAKDLKVNGAMALLLKDAIKPNLVQTLENTPAIVHGGPFANIAHGCNSIVATRLGLKLADYCITEAGFGADLGAEKFFNIKCRYAGLKPDLVVLVATIRALKYNGGVKKENLGIENLPALEKGFVNLEKHIENIRKFQVPLLVAINHFDTDSEAEIEYVKNRCKALNVEVAFSDVFSKGSEGGIELAEKVVKLTETQKSNFKPLYDVNLSIREKIEIIAREIYGADSVNILPAAERAIKKIEELKMDKLPICVAKTQYSLSDDPTLLGRPQGFVITVREIKLSSGAGFIVAITGDIMTMPGLPKVPAAEKIDIDENGVITGLF", "soluble on expression in E. coli": "soluble"}, {"sequence": "MGSDKIHHHHHHMKASDFREWVGKITQLSRGQKEQTKHKLGGMVPRIEVAKWLESSFEPICPVCQSNHFYRWGYQAGLQRFYCRMCKHTFTAISGTPLARLRHKDQWLNYSAALIEGLTVRASARQCRIDKNTSFRWRHRFLTLPAAAKANHLEGIVEADETFFPVSCKGQRQLDRPPRKRGKQIHMRGTGKDQVPVLIVRDRSGATADFMLDAIDRKAIEPPLRTVLEKDVIFCSDGAAVYRSVARSLGITHRPVNLAAGVRVIAGVYHIQNVNAYHSRLKQWMKRFHGVATRYLENYLGWFRWLDQQENLSSPIVPLQAALGRENQFQLLTNT", "soluble on expression in E. coli": "not soluble"}, {"sequence": "MGSDKIHHHHHHMTYINAQGRLKGCKPIAVIDIGSNSVRLVIYEGLVRSPTVLFNEKILCGLGQGVAKTGLLEENSMNMALRTLKRFRALCLQIGADEIYILATAAAREAKNGLAFIQNAENILQNKIYLLSGSEEAVYSAYGVISTFYQPKGISGDLGGGSLELIDIDNSEVGEGITLPLGGLRLQYMSNNDIAVAAKIAQEQFGKSAVVHKSMARCFYAVGGTWRNLAKLHMATKHYRLPVMHGYEVDAVEMEDFLRFVVNGSIENMKGISAVSKNRRQLLSYGAIILIELIRCVGFEKIIFSGAGVREGFLYSRLPQEVRVSDPLIAACTEMAILRARSPKQAEELIDFTTNAFEVFGILETENECRYRKAACLLADIGWRIHPDYRGNEAANQIALGSYPGISHEGRAYAALAVFFRNTGSLIGEESLPIFQLASKDVIEKARILGEIMRIAHLFSASTTGVLPHLSWHKKIDHVVLHIPARYADLLGERPLSRLKKLSKIIELPLAFEIF", "soluble on expression in E. coli": "not soluble"}, {"sequence": "MAHHHHHHMGDFALISMNGDRVFISLDPVFTSQSLWLQAAEGLGEREGVVPIASTETLHNLVEYMAFQAKRMAGVAEGECKGGQTVTLPISCTTCSGSGGLGYDVHSLLPDHDIAFLDRFGGTGGVWEVEQQEKLMELMATADFVGHGRLSRLCAVYISCRLMSATESDILSWFSVCGDRCGGVASADPEADDGNRAGERVLRDAERLRILNQMRKYIEIED", "soluble on expression in E. coli": "not soluble"}, {"sequence": "MSLEGRRICVDSCPITCITFCAAHTALGPHHGRSGCAVVIRSMDEKLKRVAHAVSDMGLMSKILGESGSSRNTEDYVELNANEFEMTGTELERQVRIARISDKQDVIDIKDAVYDGDVVVADITRHSTQDRTMEHISDELKQVANEVGGDIVQKDDDQLIITPAGVGIARERLGREGHHHHHH", "soluble on expression in E. coli": "soluble"}, {"sequence": "MVFDPDFLNNNSEEHTNQLLNEHFGEHPNQLLKYLQHQSPEVLARVAQSVTPEIKQIISQNVQGLVGMLPAESFNVQITTDRDNLAGLLASAMMTGYFLRQMEQRMQLDHLSNQ", "soluble on expression in E. coli": "not soluble"}, {"sequence": "MERCGWVSQDPLYIAYHDNEWGVPETDSKKLFEMICLEGQQAGLSWITVLKKRENYRACFHQFDPVKVAAMQEEDVERLVQDAGIIRHRGKIQAIIGNARAYLQMEQNGEPFVDFVWSFVNHQPQVTQATTLSEIPTSTSASDALSKALKKRGFKFVGTTICYSFMQACGLVNDHVVGCCCYPGNKPLEHHHHHH", "soluble on expression in E. coli": "soluble"}, {"sequence": "MTFYDHLHASPYTWERVGNLLADATAADVERSLAYRRRTIQDFITLISPAAIPYLEQMARQAHALTVERFGHTMQLYIPLYLSNICSNACVYCGFSRSNKIHRRRLTAEEVDREAEAILRLGYKHLLLVSGESEKATPASYYEKMTRRLRPLFSQLSLEVQPLTTEEYARLHEAGIGAVYVYQETYNEQAYPTYHPAGRKADYRYRLETPDRIGRANMQKIGIGALLGLENWRVDSVFTALHLRYLEQTYWKSKFSISLPRLRPATGGWEPKDPIDDVGMVQLITAFRLLDKDVEISLSTRESREFRDHVMPLGITSVSAGSKTEPGGYAEENADLEQFAINDARSPAEMAADLRRLGYEPVWKDWDAFM", "soluble on expression in E. coli": "not soluble"}, {"sequence": "MATQDDAHLAELKKKRTFRKFMYRGVDLDQLLDMSREQFTKLLPCRMRRRLDRGLKRKHLALIAKVQKAKKAAGVLEKPATVKTHLRDMIILPELVGGVIGIYNGKVFNQTEIKPEMIGFYLGEFAISYKPVKHGRPGIGATHSSRFIPLK", "soluble on expression in E. coli": "not soluble"}, {"sequence": "HMNAEINPLHAYFKLPNTVSLVAGSSEGETPLNAFDGALLNAGIGNVALIRISSIMPPEAEIVPLPKLPMGALVPTAYGYIISDVPGETISAAISVAIPKDKSLCGLIMEYEGKCSKKEAEKTVREMAKIGFEMRGWELDRIESIAVEHTVEKLGCAFAAAALWYK", "soluble on expression in E. coli": "soluble"}, {"sequence": "MGSDKIHHHHHHMITVRDLSWQYEPLVDGGKPVDSLKHVSFDIKSGSFVGVIGPTGAGKSTLCMALAGIIPNLADGTMTGLVEVNGMNTSRHSVSALSERIGYVQQDPEAQLFCASVEDEIAFPLENRGIAPDIIDKQIDVMLDLVGMTGYRKRVPASLSGGQMQRVAIAAALAAEPDVLILDEPTAALDPEGKQEVFDVLERIRQTRSMTVIMAEQDTEHIAYWADQVLFMVNGELVRNGDASLFVREKGLLESSGVQVADDPLPQVKAVQQGKKHKKDKKNQPERSKDVVISLDHVSYQYERGGNASKALDDVTFDIERGSFIGLIGRNGSGKTTLAKHLNGLIRPTQGTVTVDGLDASKHSVGEMAAHVGFVFQNPDHQIFCSTTKEEIAFGPTALGLDGATVFKRVDEMLTLFDLHRYEDVSPATLGYGERRAVALSSVLAMRTPILVLDEPTAGLDHRLAARFLGTIEKLNQRGVTIVMISHDMRAVYRYCTHVLELEDGKVVQYGPIDRSEAAQKQSRTIRKPRKSNGPVSATHVLLKVTKHEEGRH", "soluble on expression in E. coli": "not soluble"}, {"sequence": "VPRIAEVRDAAEPSSEEQRARHVRMLEAAIELATEKELARVQMHEVAKRAGVAIGTLYRYFPSKTHLFVAVMVDQIDRMGVGFKKSAPPGESPQDAVYNVLVRATRGLLRRPALSTAMIQSTSTANVASVPDAGKVDRAFRQIMLDAAGIEHPTEEDLTALRLLVQLWFGVIQSCLNGRVSIPDAESDIRRACDLLLVNLSHR", "soluble on expression in E. coli": "soluble"}, {"sequence": "GPGSMAGAADPRDEDAKAVNAVLRLPEDDFYAVLGLGEAREDATERDIKNAFRRLSKKYHPDVATGDQDSYRLVYQRVQRAYEVLGDRRKRKIYDILGIDGVTRLEKPQQQQQMNPFFAFFGVGQQADAERGKDMVLLMVVPLEDIYRGAAHTSRFAKRKICRACKGTGARSGEDVVKCPHCQGRGRLAQRVQIAPGFVQQVEQVCPHCQGKGTHVAHMCPVCRGKMVLPGEAVLSVDIEEGLPEGHVLTYELEADQAPGQVPGDVLLTVISAPHPVFHRSGNDLYANVSITLKEALLGFKKTLAHLDGHNVELHWDGVMQNTQQVRIAGEGMPRHHVPSERGDLYITYNVLLPEALTAEQRALFQEHFA", "soluble on expression in E. coli": "not soluble"}, {"sequence": "GPGSMKQIAHYFRIKTAKHAVLEAGDNIRELCSVLSFPLIIKHVSGYSSVGMDKSCKVYDMDSLHSRVTRFIEQYQIALVEEFVVGDEATILVCADSTQPDGIRVFPPVMVQFPEGEDFKHFHLKWETYEGMEWRLMPEDDPALSQVLSTARTSFMHMMGGVGYGRVDVRIDRSTHDVVFLEINPNCGVMYPPGQEGSADWILRLTPGFNQREFTLLQIKEALRRNERMQPLFRCVYNPAQGYRMCATRDISAGSPIFEAEGQSVRLYTKPHVKATRGKEEYDQFAQKAWPLGGDGHYYALWDNEPTNWRTFSHSCVPNMNFGPNRSLNLYATRDIARGEELTMDYRLFRDETTPPFQCCCGSECCEGWIAMNGGKLTKEENGNNY", "soluble on expression in E. coli": "not soluble"}, {"sequence": "ICNKYKNINVNMKKNNDDTWTDLVKNSSDINKGVLLPPRRKNLFLKIDESDICKYKRDPKLFKDFIYSSAISEVERLKKVYGEAKTKVVHAMKYSFADIGSIIKGDDMMENNSSDKIGKILGDGVGQNEKRKKWWDMNKYHIWESMLSGYKHAYGNISENDRKMLDIPNNDDEHQFLRWFQEWTENFCTKRNELYENMVTACNSAKCNTSNGSVDKKECTEACKNYSNFILIKKKEYQSLNSQYDMNYKETKAEKKESPEYFKDKCNGECSCLSEYFKDETRWKNPYETLDDTEVKNNCMCK", "soluble on expression in E. coli": "soluble"}, {"sequence": "MELVIISGRSGSGKSVALRALEDVGYYCVDNLPFPLIAELASFLLASDCSAVVSLDIRNFPENLTRIDELLHQLSQLTINTKMIFLDCESATLIRRYSDSRRLHPLSNQDLSLASAIELENTLLDPLRQQADYLIDTTHSSPHELAANLRHILRGSTEKELNIVFESFGFKYGLSADADYVFDVRFLPNPHWHAELRAMTGLEQPVIDFLERQTEVHNFIYQTRNYLETWLPMLEKNNRSYLTIAFGCTGGKHRSVFITEQLAKYFQSRGKNVKIRHRSLEKY", "soluble on expression in E. coli": "not soluble"}, {"sequence": "GMELDDAYANGAYIEGAADYPPRWAASAEDFRNSLQDRARLNLSYGEGDRHKFDLFLPEGTPVGLFVFVHGGYWMAFDKSSWSHLAVGALSKGWAVAMPSYELCPEVRISEITQQISQAVTAAAKEIDGPIVLAGHSAGGHLVARMLDPEVLPEAVGARIRNVVPISPLSDLRPLLRTSMNEKFKMDADAAIAESPVEMQNRYDAKVTVWVGGAERPAFLDQAIWLVEAWDADHVIAFEKHHFNVIEPLADPESDLVAVITA", "soluble on expression in E. coli": "soluble"}, {"sequence": "AHHHHHHGSVERKKWSENFSEWFNEVIEEAGILDKRYPVKGMNVWLPYGLKIMKNIEKFIHEEMERTDHQEVLFPALIPETEFQKEAEHIAGFEGEVFWVTHAGHEPLDVRLVLRPTSETAMYSMFALWIRSHADLPFKVYQIVNVYRYETKHTRPLIRVREISRFFEAHTAHADFEDAERQIKEDLEIFDNLMKKLAIAYVISKRPEWDKFPGAYYSLGAEVVMPDGRTLQIGTMHNYKQNFAKAYNILYEKEDGTHDYVHQTTFGMSERLLAAVIAIHGDDRGMVLPPTIAPIQVVIVPIPKKGSEEEVYSYAREIEEELKLAGIRVHLDLRDKRPGWKFYDWELKGVPVRIEVGPRDAAEKTVVLARRDKLEKITVSREELVDKVRELFDDIMQYLYERAKEWLESHIKRVDTIEEAKELFNDRRGIVEIPWCGEEECGLKMEEELEAKMLGIPYPEESARVEGKKCPVCGREAKFIARFARTY", "soluble on expression in E. coli": "not soluble"}, {"sequence": "MTIEKIDTLVIGAGQAGVAMSEHLSKQDVPHLVLERNRIAEQWRTGRWDSLVANGPAWHDRFPGLEFEEHDPDSFVPKEKIADYLVDYAKKFDAPIRTGIEVKNVERNTNGQGFIIETSQGTIEAKRVVSATGPFQVPVIPPIAKNEKITQIHSADYRNPEQLEDGAVLVVGAGSSGVQIADELQRSGRKVFLSTGPHDRPPRSYRNRDFCWWLGVLGEWDRESLEPGTEHVTIAVTGAHGGNGTVDFRALAHQGITLLGMTKEFNNGKVTFQKDLNTNVERGNKNYMDFLDSADAYIERNGLDLPEEPTARDVLSDPECMTNPILELDLAKEGITSIVWATGFALDYSWLNVDAFDENGKPAHQRGVSTEPGVYFVGQAWLSRRGSAFIWGVWHDAKHIAGHISTQRTYSAYQDASQRLEHHHHHH", "soluble on expression in E. coli": "soluble"}]}]}
